{"source": "patent US20240247058A1", "about": "(published 2024)", "key": {"[1]": {"biological_target": "T1, human Tumour Necrosis Factor alpha (hTNFα) (human, UniProt P01375 77-233)", "T1 construct": "Coated on ELISA plates, amine-coupled to the BIAcore chip, or biotinylated on Octet streptavidin sensors; soluble in the L929 assay; also called rhTNFα; hTNF-alpha", "T1 sequence (P01375 77-233 limits assumed)": "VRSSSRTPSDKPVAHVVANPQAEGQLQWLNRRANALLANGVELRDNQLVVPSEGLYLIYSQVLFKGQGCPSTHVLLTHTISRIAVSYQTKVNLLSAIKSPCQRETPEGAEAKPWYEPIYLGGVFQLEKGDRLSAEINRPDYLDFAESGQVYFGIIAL", "experiment": "kinetics on hTNFα, Table 1 (instrument for Ka/Kd not stated)"}, "[2]": {"biological_target": "T1, human Tumour Necrosis Factor alpha …", "experiment": "cell-based or functional assay"}, "[3]": {"biological_target": "T1, human Tumour Necrosis Factor alpha …", "experiment": "BLI, Octet RED96, biotinylated hTNF-α on streptavidin sensors (BIAcore cell is n/a)"}, "[4]": {"biological_target": "T1, human Tumour Necrosis Factor alpha …", "experiment": "SPR, BIAcore T200, TNFα amine-coupled to chip, 1:1 Langmuir fit"}, "[5]": {"biological_target": "T1, human Tumour Necrosis Factor alpha …", "experiment": "BLI, Octet RED96, biotinylated hTNF-α on streptavidin sensors"}, "[6]": {"biological_target": "T1, human Tumour Necrosis Factor alpha …", "experiment": "statement in the legend of the Caco-2 permeability assay (FIG. 8)"}, "[7]": {"biological_target": "T1, human Tumour Necrosis Factor alpha …", "experiment": "binding profile of humanised D1 versions on hTNF-alpha (FIG. 16)"}, "[8]": {"biological_target": "T2, mouse ICOS ligand (mouse, UniProt Q9JHJ8 47-279, limits assumed)", "T2 construct": "the construct is not described; also called mICOSL", "T2 sequence (looked up)": "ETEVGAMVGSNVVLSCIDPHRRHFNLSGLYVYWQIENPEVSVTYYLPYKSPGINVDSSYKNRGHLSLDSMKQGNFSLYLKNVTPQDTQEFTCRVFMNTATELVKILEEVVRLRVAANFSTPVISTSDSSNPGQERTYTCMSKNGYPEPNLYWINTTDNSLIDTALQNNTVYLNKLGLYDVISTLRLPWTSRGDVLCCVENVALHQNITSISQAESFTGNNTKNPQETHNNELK", "experiment": "binding ELISA on human and mouse ICOS ligands (FIG. 11)"}, "[9]": {"biological_target": "T3, Mouse TNFα (mouse, UniProt P06804 80-235)", "T3 sequence (looked up)": "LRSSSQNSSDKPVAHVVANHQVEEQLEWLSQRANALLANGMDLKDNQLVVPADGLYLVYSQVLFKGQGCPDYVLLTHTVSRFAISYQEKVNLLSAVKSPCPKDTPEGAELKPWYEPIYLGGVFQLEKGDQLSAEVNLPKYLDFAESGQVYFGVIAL", "experiment": "cell-based or functional assay"}, "[10]": {"biological_target": "T4, human ICOS ligand (human, UniProt O75144 19-258, limits assumed)", "T4 construct": "also called hICOSL", "T4 sequence (looked up)": "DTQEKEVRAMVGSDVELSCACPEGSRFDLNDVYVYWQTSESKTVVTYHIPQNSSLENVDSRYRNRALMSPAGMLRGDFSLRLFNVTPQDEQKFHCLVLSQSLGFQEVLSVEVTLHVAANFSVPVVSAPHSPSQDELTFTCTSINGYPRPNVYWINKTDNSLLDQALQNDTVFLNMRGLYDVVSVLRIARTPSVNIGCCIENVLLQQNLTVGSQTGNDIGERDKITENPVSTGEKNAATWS", "experiment": "binding ELISA on human and mouse ICOS ligands (FIG. 11)"}}}
{"binder": "TNF VNAR DIMER D1-B4 (VNAR) ARVDQTPQTITKETGESLPINCVLRDSHCATSSTYWYRKKSGSTNEESISKGGRYVETVNSGSKSFSLRINDLTVEDSGTYRCASECQYGLAEYDVYGGGTVVTVNGGGGSGGGGGSGAHSARVDQTPQTITKETGESLTINCVLRDSNCALSSMYWYRKKSGSTNEESISKGGRYVETVNSGSKSFSLRINDLTVEDSGTYRCKVYIPCIDELVYMISGGTSGPIHDVYGGGTVVTVNAAAHHHHHHGAAEQKLISEEDL", "values": [{"measurement": "koff", "setting": "[1]", "result": 0.0005, "unit": "s⁻¹"}, {"measurement": "kon", "setting": "[1]", "result": 270000, "unit": "M⁻¹ s⁻¹"}, {"measurement": "ND50 (nM), neutralisation of hTNF-alpha cytotoxicity in L929 cells", "setting": "[2]", "result": 8, "unit": "nM"}, {"measurement": "Kd", "setting": "[3]", "result": 15.9, "unit": "nM"}]}
{"binder": "TNF VNAR D1-BA11-D1 (VNAR, Tandem VNAR trimer with His and myc tags) ARVDQTPQTITKETGESLTINCVLRDSHCATSSTYWYRKKSGSTNEESISKGGRYVETVNSGSKSFSLRINDLTVEDSGTYRCASECQYGLAEYDVYGGGTVVTVNGGGGSGGGGSGGGGSGGGGSGAHSTRVDQSPSSLSASVGDRVTITCVLTDTSYPLYSTYWYRKNPGSSNKEQISISGRYSESVNKGTKSFTLTISSLQPEDSATYYCRAMSTNIWTGDGAGTKVEIKGGGGSGGGGSGGGGSGGGGSGAHSARVDQTPQTITKETGESLTINCVLRDSHCATSSTYWYRKKSGSTNEESISKGGRYVETVNSGSKSFSLRINDLTVEDSGTYRCASECQYGLAEYDVYGGGTVVTVNHHHHHHHEQKLISEEDL", "values": [{"measurement": "koff", "setting": "[1]", "result": 0.0002, "unit": "s⁻¹"}, {"measurement": "kon", "setting": "[1]", "result": "1.9e+06", "unit": "M⁻¹ s⁻¹"}, {"measurement": "ND50 (nM), neutralisation of hTNF-alpha cytotoxicity in L929 cells", "setting": "[2]", "result": 0.38, "unit": "nM"}, {"measurement": "Kd", "setting": "[4]", "result": 4, "unit": "nM"}, {"measurement": "Kd", "setting": "[5]", "result": 0.1, "unit": "nM"}]}
{"binder": "TNF VNAR D1-BA11-B4 (VNAR, Tandem VNAR trimer with His and myc tags) ARVDQTPQTITKETGESLTINCVLRDSHCATSSTYWYRKKSGSTNEESISKGGRYVETVNSGSKSFSLRINDLTVEDSGTYRCASECQYGLAEYDVYGGGTVVTVNGGGGSGGGGSGGGGSGGGGSGAHSTRVDQSPSSLSASVGDRVTITCVLTDTSYPLYSTYWYRKNPGSSNKEQISISGRYSESVNKGTKSFTLTISSLQPEDSATYYCRAMSTNIWTGDGAGTKVEIKGGGGSGGGGSGGGGSGGGGSGAHSARVDQTPQTITKETGESLTINCVLRDSNCALSSMYWYRKKSGSTNEESISKGGRYVETVNSGSKSFSLRINDLTVEDSGTYRCKVYIPCIDELVYMISGGTSGPIHDVYGGGTVVTVNHHHHHHHEQKLISEEDL", "values": [{"measurement": "koff", "setting": "[1]", "result": 0.006, "unit": "s⁻¹"}, {"measurement": "kon", "setting": "[1]", "result": "1.7e+06", "unit": "M⁻¹ s⁻¹"}, {"measurement": "Kd", "setting": "[3]", "result": 0.33, "unit": "nM"}]}
{"binder": "TNF VNAR B4 (VNAR, Nurse shark VNAR single domain, expressed with His and myc tags) VNAR: ARVDQTPQTITKETGESLTINCVLRDSNCALSSMYWYRKKSGSTNEESISKGGRYVETVNSGSKSFSLRINDLTVEDSGTYRCKVYIPCIDELVYMISGGTSGPIHDVYGGGTVVTVNA", "values": [{"measurement": "binding result", "setting": "[6]", "result": "binds"}]}
{"binder": "SoloMER™ VNAR D1-v2 (VNAR, Humanised D1 VNAR with His tag; also called soloMER D1-v2) VNAR: ARVDQSPSSLSASVGDRVTITCVLRDSHCATSSTYWYRKKSGSTNEESISKGGRYVETVNSGSKSFTLTISSLQPEDFATYYCASECQYGLAEYDVYGGGTKVEIKH", "values": [{"measurement": "binding result", "setting": "[7]", "result": "binds"}]}
{"binder": "SoloMER™ VNAR D1-v4 (VNAR, Humanised D1 VNAR with His tag) VNAR: ARVDQSPSSLSASVGDRVTITCVLRDSHCATSSTYWYRKKPGSTNEESISKGGRFSGSGSSGSKSFTLTISSLQPEDFATYYCASECQYGLAEYDVFGQGTKVEIKH", "values": [{"measurement": "binding result", "setting": "[7]", "result": "binds"}]}
{"binder": "SoloMER™ VNAR D1-v3 (VNAR, Humanised D1 VNAR with His tag) VNAR: ARVDQSPSSLSASVGDRVTITCVLRDSHCATSSTYWYQQKPGKTNEESISKGGRYVETVNSGSKSFTLTISSLQPEDFATYYCASECQYGLAEYDVYGGGTKVEIKH", "values": [{"measurement": "binding result", "setting": "[7]", "result": "binds"}]}
{"binder": "ICOS VNAR CC3-Fc-CC3 (Fc fusion, Human IgG1 Fc; also called anti-ICOSL Quad-X™ construct) TRVDQTPRTATKETGESLTINCVLTDTEYGLFSTSWFRKNPGTTDWERMSIGGRYVESVNKGAKSFSLRIKDLTVADSATYYCKALGWWPPAFPHWYDGAGTVLTVNGGGGSGGGGRTEPKSSDKTHTCPPCPAPEAAGAPSVFLFPPKPKDTLMISRTPEVTCVVVDVSHEDPEVKFNWYVDGVEVHNAKTKPREEQYNSTYRVVSVLTVLHQDWLNGKEYKCKVSNKALPAPIEKTISKAKGQPREPQVYTLPPSREEMTKNQVSLTCLVKGFYPSDIAVEWESNGQPENNYKTTPPVLDSDGSFFLYSKLTVDKSRWQQGNVFSCSVMHEALHNHYTQKSLSLSPGKTAAAATAAAATAAAATAAAATRVDQTPRTATKETGESLTINCVLTDTEYGLFSTSWFRKNPGTTDWERMSIGGRYVESVNKGAKSFSLRIKDLTVADSATYYCKALGWWPPAFPHWYDGAGTVLTVN", "values": [{"measurement": "binding result", "setting": "[8]", "result": "binds"}]}
{"binder": "TNF S17-Quad-X™ with (Gly4Ser)5 (Fc fusion) ASVNQTPRTATKETGESLTINCVLTDTHAKVFTTSWFRKNPGTTDWERMSIGGRYVESVNKGAKSFSLRIKDLTVADSATYICRAGGYLSQPRVYWDVYGAGTVLTVNGGGGSGGGGRTEPRGPTIKPCPPCKCPAPNLLGGPSVFIFPPKIKDVLMISLSPIVTCVVVDVSEDDPDVQISWFVNNVEVHTAQTQTHREDYNSTLRVVSALPIQHQDWMSGKEFKCKVNNKDLPAPIERTISKPKGSVRAPQVYVLPPPEEEMTKKQVTLTCMVTDFMPEDIYVEWTNNGKTELNYKNTEPVLDSDGSYFMYSKLRVEKKNWVERNSYSCSVVHEGLHNHHTTKSFSRTPGKGGGGSGGGGSGGGGSGGGGSGAHSASVNQTPRTATKETGESLTINCVLTDTHAKVFTTSWFRKNPGTTDWERMSIGGRYVESVNKGAKSFSLRIKDLTVADSATYICRAGGYLSQPRVYWDVYGAGTVLTVN", "values": [{"measurement": "fold improvement of in vitro neutralizing potency over S17-Fc", "setting": "[9]", "result": "~40", "unit": "fold"}]}
{"binder": "TNF VNAR DIMER D1-D1 (VNAR) ARVDQTPQTITKETGESLTINCVLRDSHCATSSTYWYRKKSGSTNEESISKGGRYVETVNSGSKSFSLRINDLTVEDSGTYRCASECQYGLAEYDVYGGGTVVTVNGGGGSGGGGGSGAHSARVDQTPQTITKETGESLTINCVLRDSHCATSSTYWYRKKSGSTNEESISKGGRYVETVNSGSKSFSLRINDLTVEDSGTYRCASECQYGLAEYDVYGGGTVVTVNAAAHHHHHHGAAESKLISEEDL", "values": [{"measurement": "koff", "setting": "[1]", "result": 0.000316, "unit": "s⁻¹"}, {"measurement": "kon", "setting": "[1]", "result": 500000, "unit": "M⁻¹ s⁻¹"}, {"measurement": "ND50 (nM), neutralisation of hTNF-alpha cytotoxicity in L929 cells", "setting": "[2]", "result": 7, "unit": "nM"}, {"measurement": "Kd", "setting": "[3]", "result": 0.6, "unit": "nM"}]}
{"binder": "ICOS VNAR CC3-Fc-2D4 (Fc fusion, Human IgG1 Fc; also called anti-ICOSL Quad-X™ construct) TRVDQTPRTATKETGESLTINCVLTDTEYGLFSTSWFRKNPGTTDWERMSIGGRYVESVNKGAKSFSLRIKDLTVADSATYYCKALGWWPPAFPHWYDGAGTVLTVNGGGGSGGGGRTEPKSSDKTHTCPPCPAPEAAGAPSVFLFPPKPKDTLMISRTPEVTCVVVDVSHEDPEVKFNWYVDGVEVHNAKTKPREEQYNSTYRVVSVLTVLHQDWLNGKEYKCKVSNKALPAPIEKTISKAKGQPREPQVYTLPPSREEMTKNQVSLTCLVKGFYPSDIAVEWESNGQPENNYKTTPPVLDSDGSFFLYSKLTVDKSRWQQGNVFSCSVMHEALHNHYTQKSLSLSPGKTAAAATAAAATAAAATAAAATRVDQTPRTATKETGESLTINCVLTDTDYGLFSTSWFRKNPGTTDWERMSIGGRYVESVNKGAKSFSLRIKDLTVADSATYYCKAFTWPWEWPDRWFRPWYDGAGTVLTVN", "values": [{"measurement": "binding result", "setting": "[10]", "result": "binds"}, {"measurement": "binding result", "setting": "[8]", "result": "binds"}]}
